test: yeast display, Sf9 membrane polyspecificity reagent, FACS + sequencing; frameworks hold sequencing errors
In short: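 Galactose-induced (36–48 hours) yeast carrying a synthetic nanobody display library were exposed to 10% biotinylated, detergent-solubilized Sf9 membrane reagent at 4 °C for 1 hour. FACS followed streptavidin microbead enrichment, using low and high (top ~1%) gates for expression (anti-HA) and reagent binding (streptavidin). Colony PCR, MiSeq 2 × 250 sequencing and CDR-length filtering followed. Labels for polyreactivity reflect the gate of origin.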

Sequence	polyreactivity (PSR sort gate)
QVQLVESGGGLVQAGGSLRLSCAASGSTFRRYAMGWYRQAPGKEREMVAGITYGSTYYADSVKGRFTISRDNAKNTVYLLMNSLKPEDTAVYYCAADLSYTSVHGYRSDTLMDYWGQGTQVTVSS	low polyreactivity
QVQLVESGGGLVQAGGSLRLSCAASGSTFFTNAMGWYRQAPGKERELVATITWSGGSTYADSVKGRFTISRDNAKNTVYLQMNSLKPEDTAVFYCAAESSSYWGDQGGALWLYDYWGQGTQVTVSS	low polyreactivity
QVQLVESGGGLVQAGGSLRLSCAASGFTFERYAMGSYRQAPGKERELVAAISSRGGGTYYADSVKGRFTISRENAKNTVFLQMNSLKPEDTAVYYCNRPYDYSYNYWGQGTQVTVSS	high polyreactivity
QVQLVESGGGLLQAGGSLRLSCAASVSIFEYYPMGWYRPAPGKERELVADITWSGGSTYYADSVKGRFTISRDNAKNTVDLQMNSLKPEDSAVYYCAKGYYVYGIFHRFGYYWGQGTQVTVSS	high polyreactivity
QVQLVESGGGLVQAGGSLRLSCAASGFIFSPNALGWYRPAPGKEREFVAAIRYSGTSTSYADSVKGRFTISRDNAKNTVYLQMNSLKPEDTAVYYCNAQWRFSRGYTYNYWGQGTQVTVSS	high polyreactivity
QVQLVESGGGLVQAGGSLRLSCAASGFMFSSYAMGWYRQAPGKERELVAAISWSDSSTYYADSVKGRFTISRDNAKNTVYLQMNSLKPEDTADYYCAAVIGPDVYYLLYDYWGQGTQVTVSS	low polyreactivity
QVQLVESGVGLVQAGGSLRLSCAASGTTIVSYAMGWYRQAPGKEMEFVATISISGTSTYYADSVKGRFTISRDNAKNTVYLQMNSLKPEDTAVYYCAARLRPRGATQFYRYDYWGQGTQVTVSS	high polyreactivity
QVQLVESGGGLVQAGGSLRLSCAASGSTSTSNAMGWYRQAPGKERELVAVISSGGSTYYADSVKGRFTISRDNAKNTVYLQMNSLKPEDTAVYYCSADARIHWFVVRYEYWGQGTQVTVSS	low polyreactivity
QVQLVESGGGLVQAGGSLRLSCDASGRTFLYYAMGWSRQAPGKERELVAAISSGGSTNYADSVKGRFTISRDNAKNTVYLQMNSLKPEDTAVYYCNADYTSRDTSDVIYEYDYWGQGTQVTVTS	low polyreactivity
QVQLVESGGGLVQAGGSLRLSCAASGRTFSNYVMGWYRQAPAKERELVAAITYSGGSTYYADSVKGRFTISRDNATNTVYLQMNSLKPEDTAVYYCARRWGGRGYYYWGQGTQVTVSS	high polyreactivity
QVQLVESGGGLVQAGGSLRLSCAASGSTFHTFAMGWYRPAPGKERELVAAINRRTGGTYYADSVKGRFTISRDNAKNTVDLQMNSLKPEDTAVFYCATDWFSYRGGIFDSWGQGTQVTVSS	low polyreactivity
QVQLVESGGGLDQAGGTLRLSSAASGSTFYTNAMGWYRQAPGKERELVAAISGSGGSTYYADSVKGRFTISRDNAKNTVYLQMNSLKPEDNAVYYCAARSRYYDTRFDYWGQGTQVTVSS	low polyreactivity
QVQLVESGAGLVQAAGSLRLSCAASVSTFYTYAMGRYRQAPGKERELVADIRWRGGSTNYADSVKGRFTISRDNAKNTVYLQMNSLTSEDTAVYYCALRYYYYGASYYYWGHGTQVTVSS	high polyreactivity
QFQLVESGGGLVQAGGSLRLSCASYGFTFEYNAMGGYRQSPGKESEFVATISWSGGSTYYADSVKGRFTFSRDKAKNTVYLQMNSLKPEDTAVYYCNAEVFFPSTYGMDYWGQGTQVTVSS	low polyreactivity
QVQLVESGGGLVQAGGSDRLSCAASGSIIDYYAMGWYRQAPGKERELVADITVTGDGTYYADSVKGRFTISRDNAKNTVYLQMNSLKPEDTAVYYCAAAGVYYGVRGTTYAYDYWGQGTQVTVSS	low polyreactivity
QVQLGESGGGLVQAGGSLRLRCAASGRIFNGYTMGWYRQAPGKERELVAAISRGGSTYYADSVKGRLTISRDNAKNTVYLLMNSLKPEDTAVYYCAASHRFGYEYWGHGTQVTVSS	high polyreactivity

Sequence	polyreactivity (PSR sort gate)
QVQLVESGGGLVQAGGSLRLSCAGSGSTSYNDMGWYRQAPGKEREMGASITSSGDDTYYADSVKGRFTISRDNAKNTVYLQMNSLKPEDTAVYYCAAEDYHRHVGSDFVIDYDYWGQGTQVTVSS	low polyreactivity
QVQLVESGGGLVQAGGSLRLSCAASGSIFRVYAMGWYRQAPGKERELVAAITNGGNTNYADSVKGRFTISRDNAKNTVYLQMNSLKPEDTAVYYCAATLHRYWYRLYYYWGQGTQVTVSS	high polyreactivity
QVQLVESGGGLVQAGGSLSLSCAATGSIFGGNAMGWKRQAPGKERELVATITDRGSSTYYADSVKGRFTISRDNAKNTVYLRMHSLNPDDTAVYYCANAFPDVPEHDYGGQGTQVTVSS	low polyreactivity
QVQLVESGGGLVQAGGSLRLSCAASGSIFTTYAMGWYRQAPGKERELVAGITGGDSSTYADSVKGRFTISRDNAKNTVYLQMNSLKPEDTAVYYCAVDSPYQHDDYWGQGTQVTVSS	low polyreactivity
QVHLVESGGGLVQAGGSLRLSCAASGRIFVRYAMGWYRQAPGKERELVATISGGRTNYADSVKWRFTISRDNAKNSVYLQMNSLKPEDTAVYYCAVGSHSRSSNSYYYWGQGSQVTVSS	low polyreactivity
QVQLVESGGGLVQAGGSLRLSCAASGRIFYGNAMGWYRQAPGKERELVAAITRSGGSTYYADSVKGRFTISRDNAKNTVYLQMKSLKPEDTAVYYCAKYRPGIPYYQYGSWGQGNQVTVSS	high polyreactivity
QVQLVESGGGLVQAGGSLRLSCAASGLIFYRYAMGWYRQAPGKERELVAAISSSGGSTYYADSVKGRFTISRDNAKNTVYLQMNSLKPDDTAVYYCAARPSTHGYKYGYWGQGTQVTVSS	high polyreactivity
QDQLVESGGGLVQAGGSLRLSCSASGRIFTRNTMGWYRQAPGKERELVAAITSRGGSTYYADSVKGRFTISRDNAKNTVYLQMNSLKPEDTAVYDCAADKPRSYYYWGQGTQVTVSS	high polyreactivity
QVQLVDSGGGLVQAGGSLRISCAASGYIFSANAMGWYRKAPGKEREFVAAISSTGGSTYYADSVKGRFTISRDTAKNTVYLQMNSLKTEDTSVYYFEAYIRRYFHYDYWGQGTQVTVSS	high polyreactivity
QVQLVESGGGLVQAGGSLRLSCAASGFTFDYYAMGWYRQAPGKERELVAAISKSGGSTYYADSVKGRFTISRDNAKNTVYLQLISLKPEDTAVYYCAAYTYVRSKNKGGDYWGQGTQVTVSS	high polyreactivity
QVQLVESGGGLVQAGASLRLSCAASGSTFGYYAMGWNRQAPGKERELVAAISTRGGSTYYADSVKGRFTISRDNAKTTVYLQMNSLKPEDIAVYYCAVLGTPYGLNDYCGQGTQVTVSS	high polyreactivity
QVQLVESGGGLVQAGGSLRLSCAASGSTFSVYAMGWYRQAPGKERELVARITGGSTYADSVKGRFTISRDNAKNTVYLQMNSLKPEDTAVYFCNAYRYWSPGYDYWGQGTQVTVSS	low polyreactivity
QVQLVESGGGLFQAGGSLRLSCAASGFTFWYYAMGWYRQAPGKERELVAAISASGGSTYYADSVKVRFTISRDNAKNTVYLQMNCLKPEDTAVYYCAARYPSKFYNTYDRDYWGQGTQVTVSS	high polyreactivity
QVQLVESGGGLVQAGGSLRLSCAASGGTIDRYAMGWYRQAPGKERELVAAITKSGDRTYYADSVKGRFTISRDNAKNTVYLQMNSLKPEDTAVYYCAAAYSGLRRQNGFNYWGQGTQVTVSS	high polyreactivity
QVQLEESGGGLVQAGGSLRLSCASSGSTFPYNAMGWYRQAPGKERELVAANTSGASTNYADSVKGRFTISRENAKNTVYLQMNRLKPEDTAVYYCAAQSFGKRIWSPRYQLNYWGQGTQVTVSS	low polyreactivity
QVQLVDSGGGLVQAGGSLRLSCAASGSTFDTNVMGWYRQAPGKERELVAAIDVSGGSTYYADSVKGRFTISRDNAKNTVYLQMNSLKPVDTAVYYCAAEDGQYGMDYWGQGTQVSVSS	low polyreactivity
